Target: T1, EGFR on the surface of A431 cells (human, UniProt P00533 25-1210)
T1 construct: whole, on cells; also called cell surface EGFR
Test: flow cytometry on A431 cells with cetuximab or rituximab pre-incubation

B1: ONC-scFvEGFR (onconase (ONC) fused to a single-chain antibody fragment (scFv) against EGFR) (scFv)
chain: QDWLTFQKKHITNTRDVDCDNIMSTNLFHCKDKNTFIYSRPEPVKAICKGIIASKNVLTTSEFYLSDCNVTSRPCKYKLKKSTNKFCVTCENQAPVHFVGVGSCGGGGSGGGGSGGGGSEVQLVESGGGLVQPGGSLRLSCAASGFSLTNYGVHWVRQAPGKGLEWLGVIWSGGNTDYNTPFTSRFTISRDNSKNTLYLQMNSLRAEDTAVYYCARALTYYDYEFAYWGQGTTVTVSSGGGGSGGGGSGGGGSDIQLTQSPSFLSASVGDRVTITCRASQSIGTNIHWYQQKPGKAPKLLIKYASESISGVPSRFSGSGSGTEFTLTISSLQPEDFATYYCQQNNNWPTTFGAGTKLEIKRAAAEQKLISEEDLNGAAHHHHHH
notes: also called immunoRNase; fusion polypeptide
binding result: binds
